The results in this text go back to patent US6531306.

Where two headings read alike, the source gives them in different places.

For series [1], the target named is T1, Active DNA-dependent ATPase A Domain (ADAAD, 82 kDa) (Bos taurus) (UniProt Q9TTA5).
T1 sequence: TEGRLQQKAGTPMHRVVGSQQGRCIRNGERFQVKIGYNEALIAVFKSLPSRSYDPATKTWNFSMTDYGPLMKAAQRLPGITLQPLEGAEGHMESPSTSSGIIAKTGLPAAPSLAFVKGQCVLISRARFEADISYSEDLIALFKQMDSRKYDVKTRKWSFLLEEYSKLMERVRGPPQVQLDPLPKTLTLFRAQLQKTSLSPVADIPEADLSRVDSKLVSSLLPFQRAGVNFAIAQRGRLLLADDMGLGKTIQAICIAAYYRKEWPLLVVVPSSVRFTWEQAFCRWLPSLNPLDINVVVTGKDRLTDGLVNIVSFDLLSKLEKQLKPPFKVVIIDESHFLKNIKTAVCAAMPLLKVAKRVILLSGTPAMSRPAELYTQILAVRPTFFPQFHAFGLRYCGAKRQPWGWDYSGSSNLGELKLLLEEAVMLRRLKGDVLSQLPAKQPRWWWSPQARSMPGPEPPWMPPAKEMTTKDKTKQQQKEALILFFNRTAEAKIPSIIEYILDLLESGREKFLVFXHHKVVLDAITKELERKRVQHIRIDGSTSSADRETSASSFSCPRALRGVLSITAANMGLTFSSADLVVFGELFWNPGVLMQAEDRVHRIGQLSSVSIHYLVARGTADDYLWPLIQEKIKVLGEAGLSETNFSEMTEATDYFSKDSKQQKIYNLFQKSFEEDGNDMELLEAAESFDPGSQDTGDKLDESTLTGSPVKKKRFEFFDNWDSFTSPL
The following applies: apparent binding constant from ATP hydrolysis kinetics.

The target of series [2] is T1, Active DNA-dependent ATPase A Domain (ADAAD, 82 kDa) (Bos taurus). To be noted: ATP hydrolysis.
Series [3] has the same target. The following applies: ATP hydrolysis. This is another data set of the same source.
In series [4] the test system is MAbs specific for DNA-dependent ATPase A.
The target of series [5] is T1, Active DNA-dependent ATPase A Domain (ADAAD, 82 kDa) (Bos taurus). The following applies: blunt-ended stem-loop, dG 18.4; ATP hydrolysis; SEQ:1 inferred.
Series [6] has the same target. To be noted: ATP hydrolysis. This is another data set of the same source.

As to stem-loop DNA, 9-base loop, the Ka in series [1] came to 8e+07 M⁻¹.
With “Table 16 structure 6 AT-rich blunt-ended duplex”, the activity (relative activity) in series [2] is 49.
Substance “Table 16 structure 7 blunt-ended duplex, 4 base mismatch” registered an activity (relative activity) in series [3] of 66.5.
In the case of stem-loop DNA, 3-base loop, in series [1], the Ka amounted to 2e+07 M⁻¹.
On the same count and under the same terms, the result for stem-loop DNA, 6-base loop reads 5e+07 M⁻¹.
Turning to DNA-dependent ATPase A, the “DNA-dependent ATP hydrolysis in vitro” value in series [4] was “none of the MAbs demonstrate inhibition of DNA-dependent ATP hydrolysis in vitro”.
For the substance “GCGCAATTGCGCTCGACGATTTTTTAGCGCAATTGCGC [stem-loop DNA, 12-base loop]”, the activity (relative activity) in series [5] is 90.
“Table 16 structure 8 blunt-ended duplex, 10 base mismatch” had an activity (relative activity) in series [6] of 83.7.
